One data set concerns CMS5 cells. Nature of the data set: Killing effect of puromycin on CMS5 cells (trypan blue staining, microscope). The format is cell-based. Conditions: puromycin 5 μg/mL, 24 h of culture. The method, then:
In order to determine the killing dose of puromycin to CMS5, CMS5 cells were cultured in RPMI1640 (10% FBS, 1% […]) complete media with different concentrations of puromycin. 24 h later, cells were stained with trypan blue and observed under a microscope for mortality to determine the drug concentration for 100% lethality of CMS5 cells as the drug pressure for CMS5-VP1 cell line screening. […] After 24 h of culture, the CMS5 cells digested with trypsin were stained with trypan blue and the lethality of the cells was calculated microscopically to determine the final puromycin drug concentration. […]

Data set [1] relates to DTH (delayed type hypersensitivity). Nature of the data set: Delayed type hypersensitivity (DTH), foot pad / paw swelling after antigen injection. Conditions: Example 13; two immunizations; 24 h after injection of rVP1; therapeutic vaccine groups compared with Vac group. In kind it is in vivo, mice. The method, then: Delayed Type Hypersensitivity (DTH): the mice were immunized with the vaccine, and 7 days after the final immunization, 10 μL of antigen protein (10 μg) was injected into the hindfoot pad on the immunized side (right side) of the mice, and 10 μL of phosphate buffer was injected into the hindfoot pad on the side opposite to the immunized side (left side). The thickness of both hindfoot pads of the mice was measured 24 h and 48 h after DTH with a vernier caliper, and the measurement was performed three times at the same site to take the average. DTH value (mm)=right foot pad thickness−left foot pad thickness.
On day 7 after the immunization program, mice were injected with 10 μL of PBS or 10 μg of rVP1 (10 μL) at the left and right hind limb paws.
The paw swelling thickness was calculated for each experimental group according to the formula, and the differences between all vaccine groups were analyzed with GraphPad Prism statistical software.

The subject of data set [2] is anti-VP1 antibody in serum. Nature of the data set: VP1-specific antibody titer in serum of immunized mice by ELISA. The format is in vivo, BALB/c mice. Conditions: Example 14; antigen adsorbed to Al(OH)3, i.m. days 0 and 14, blood day 28; plate coated with sVP1. The protocol: Enzyme-linked immunosorbent assay: on day 21, blood samples were collected from the mice, and the serum was determined for specific antibody titer by ELISA. When the antibody concentration in the mouse serum needs to be semi-quantitatively determined, a standard curve is added on the basis of the conventional ELISA, and the concentration of the antibody in the mouse serum is determined according to the concentration of the standard curve.
Blood was taken from the fundus of BALB/c mice who have completed the immunization program on day 28 after the initial immunization and left to stand at 4° C. overnight. The blood was centrifuged at 6000 rpm for 10 min to obtain serum. The level of anti-VP1 antibody in serum was determined by ELISA. The specific procedures were as follows: […]
The optical absorbance values were read at OD450/OD620 nm, and a value of 2.1 times the OD value of the negative control group was taken as a cutoff value. […]
In order to obtain a large amount of VP1, VP1 expressed under high-temperature induction in a fermentation tank mainly formed inclusion bodies. […] The antigen-specific antibody titer was determined by enzyme-linked immunosorbent assay (ELISA), and the specific procedures were as follows: […]
Reading: optical absorbance values were read at OD450/OD620. […]
In general terms: ELISA stands for enzyme-linked immunosorbent assay.

The nature of data set [3]: Particle size by nano particle sizer. The format is physicochemical. The method, then:
5) The VP1 was detected for pentamer formation by Nu-PAGE. The MCV-VP1 particle size was measured using a nano particle sizer.
3) Reassembled (also known as self-assembled) recombinant VP1 was named (rVP1), and rVP1 was filtered through a […] needle filter for sterilization, detected for the pentamer structure by Nu-PAGE, and measured for the particle size by a nano particle sizer.

The record followed here is patent US12691168B2, “Vaccine for preventing and treating Merkel cell carcinoma” (priority 2020, dated 2026).

On to `COc1ccc(C[C@H](N)C(=O)N[C@H]2[C@@H](O)[C@H](n3cnc4c(N(C)C)ncnc43)O[C@@H]2CO)cc1` [puromycin], for which, in the data set with CMS5 cells, the “dead CMS5 cells, trypan blue staining” value is 100% and the “state of the cells observed under a microscope” value was “died in large numbers”.

B1: rVP1: recombinant VP1 from inclusion bodies, disassembled with DTT/EGTA and reassembled under GSSG-GSH condition (protein)
chain: MAPKRKASSTCKTPKRQCIPKPGCCPNVASVPKLLVKGGVEVLSVVTGEDSITQIELYLNPRMGVNSPDLPTTSNWYTYTYDLQPKGSSPDQPIKENLPAYSVARVSLPMLNEDITCDTLQMWEAISVKTEVVGISSLINVHYWDMKRVHDYGAGIPVSGVNYHMFAIGGEPLDLQGLVLDYQTEYPKTTNGGPITIETVLGRKMTPKNQGLDPQAKAKLDKDGNYPIEVWCPDPSKNENSRYYGSIQTGSQTPTVLQFSNTLTTVLLDENGVGPLCKGDGLFISCADIVGFLFKTSGKMALHGLPRYFNVTLRKRWVKNPYPVVNLINSLFSNLMPKVSGQPMEGKDNQVEEVRIYEGSEQLPGDPDIVRFLDKFGQEKTVYPKPSVAPAAVTFQSNQQDKGKAPLKGPQKASQKESQTQELHHHHHH
Regarding B1, in data set [1], the “DTH reaction (paw swelling thickness)” value was “not significant”. Further, the “antigen-specific antibody titer relative to sVP1” value in data set [2] is on record as “twice those of sVP1”. In data set [3], this molecule showed a particle size of 115.3 nm.

B2: sVP1: soluble VP1 expressed under low-temperature induction (protein)
chain: MAPKRKASSTCKTPKRQCIPKPGCCPNVASVPKLLVKGGVEVLSVVTGEDSITQIELYLNPRMGVNSPDLPTTSNWYTYTYDLQPKGSSPDQPIKENLPAYSVARVSLPMLNEDITCDTLQMWEAISVKTEVVGISSLINVHYWDMKRVHDYGAGIPVSGVNYHMFAIGGEPLDLQGLVLDYQTEYPKTTNGGPITIETVLGRKMTPKNQGLDPQAKAKLDKDGNYPIEVWCPDPSKNENSRYYGSIQTGSQTPTVLQFSNTLTTVLLDENGVGPLCKGDGLFISCADIVGFLFKTSGKMALHGLPRYFNVTLRKRWVKNPYPVVNLINSLFSNLMPKVSGQPMEGKDNQVEEVRIYEGSEQLPGDPDIVRFLDKFGQEKTVYPKPSVAPAAVTFQSNQQDKGKAPLKGPQKASQKESQTQELHHHHHH
B2: in data set [3], the particle size result is “much higher than that of rVP1”.
